Laboratory results taken from patent US20220168400A1, “USE OF A MANGANESE SUPEROXIDE DISMUTASE WITH HIGH STABILITY IN THE PREVENTION OR TREATMENT OF CEREBRAL STROKE” (CARRY HEALTH BIOPHARMACEUTICALS (HANGZHOU) CO., LTD., priority 2019, published 2022).
“And” between values parts separate entries of the source, which are not always exact repeats. Equal values may be shown once.

Columns and labels:
[1] = tested on: cerebral ischemia model in Albino strain zebrafish; experiment: Ponatinib-induced cerebral ischemia model in zebrafish; type: in vivo; conditions: for Number of zebrafish with cerebral ischemia / Incidence of cerebral ischemia: n = 20; for Incidence of cerebral ischemia: model control 100%
Procedure: Melanin allele mutated Albino strain zebrafish at 2 days post fertilization (2 dpf) was administered with an aqueous ponatinib solution (1 μg/mL) for 18 hours to establish a cerebral ischemia model in zebrafish. 180 melanin allele mutated Albino strain zebrafishes at 2 days post fertilization (2 dpf) were randomly selected. 30 zebrafishes were treated in each well (experiment group), and aqueous MS-SOD solutions with concentrations of 222, 667 and 2000 μg/mL were administrated respectively, the concentration of positive control drug aspirin was 50 μg/m L, and the normal control group and the model control group were set at the same time. The volume of each well was 3 mL. After MS-SOD treatment for a period of time, except for the normal control group, all the other experiment groups were simultaneously administrated with aqueous ponatinib solution to induce the cerebral ischemia model in zebrafish. After 18 hours of co-treatment with MS-SOD and ponatinib, 20 fish were randomly selected from each well and stained with o-Dianisidine. After staining, photos were taken and data were collected to count the number of zebrafish with cerebral ischemia and calculate the incidence of cerebral ischemia in zebrafish of each experiment group.

[2] = tested on: cerebral hemorrhage model in wild-type AB strain zebrafish; experiment: Simvastatin-induced cerebral hemorrhage model in zebrafish (incidence); type: in vivo; conditions: for Number of zebrafish with cerebral hemorrhage / Incidence of cerebral hemorrhage: n = 30; for Incidence of cerebral hemorrhage: model control 83%
Procedure: 1 dpf wild-type AB strain zebrafish was administered with an aqueous simvastatin solution (0.5 μM) for 18 hours to establish a cerebral hemorrhage model in zebrafish. 180 wild-type AB strain zebrafishes at 1 day post fertilization (1 dpf) were randomly selected and put in a six-well plate, 30 per well (experiment group). Simvastatin was used to induce a cerebral hemorrhage model in zebrafish. Aqueous MS-SOD solutions with concentrations of 222, 667 and 2000 μg/mL were administrated respectively, the concentration of positive control drug icariin was 30 μM, and the normal control group and the model control group were set at the same time. The volume of each well was 3 mL. After 18 hours of co-treatment with MS-SOD and simvastatin, 30 zebrafishes from each group were selected and observed under a microscope, photos were taken and saved. The number of zebrafish with cerebral hemorrhage was counted, and the incidence of cerebral hemorrhage in zebrafish of each experiment group was calculated.

[3] = Specific activity of MS-SOD; type: biochemical; conditions: MS-SOD used in the zebrafish experiments
[4] = tested on: cerebral hemorrhage model in wild-type AB strain zebrafish; experiment: Movement velocity in simvastatin-induced cerebral hemorrhage model in zebrafish; type: in vivo; conditions: for Movement velocity (mean ± SE): n = 10, model control 80, normal control 198 mm/s
Procedure: 5 dpf wild-type AB strain zebrafish was administered with an aqueous simvastatin solution (0.5 μM) for 18 hours to establish a cerebral hemorrhage model in zebrafish. 180 wild-type AB strain zebrafishes at 5 days post fertilization (5 dpf) were randomly selected and put in a six-well plate, 30 per well (experiment group). Aqueous MS-SOD solutions with concentrations of 222, 667 and 2000 μg/mL were administrated respectively, the concentration of positive control drug icariin was 30 μM, and the normal control group and the model control group were set at the same time. The volume of each well was 3 mL. After treatment of zebrafishes with samples for 4 hours, except for the normal control group, the other experiment groups were treated with simvastatin for 18 hours to establish the cerebral hemorrhage model. After the treatment, 10 zebrafishes from each group were randomly selected to measure the movement velocity (V) of zebrafish using a behavioral analyzer. The statistical significance of the movement velocity was used to evaluate the behavioral improvement effect of MS-SOD on cerebral hemorrhage. The formula of the behavioral improvement effect of MS-SOD on cerebral hemorrhage was as follows: [formula] Statistical analysis was performed using variance analysis and Dunnett's T-test, and p<0.05 indicated a significant difference.

B1: MS-SOD: manganese superoxide dismutase with high stability, gene from Thermus thermophilus HB27 expressed in E. coli; amino acid sequence SEQ ID NO: 4 (protein)
chain: MPYPFKLPDLGYPYEALEPHIDAKTMEIHHQKHHGAYVTNLNAALEKYPYLHGVEVEVLLRHLAALPQDIQTAVRNNGGGHLNHSLFWRLLTPGGAKEPVGELKKAIDEQFGGFQALKEKLTQAAMGRFGSGWAWLVKDPFGKLHVLSTPNQDNPVMEGFTPIVGIDVWEHAYYLKYQNRRADYLQAIWNVLNWDVAEEFFKKA
modifications: Amino acid sequence for MS-SOD
What does the source list for B1?
Improvement effect on cerebral ischemia ([1]; MS-SOD 222 μg/mL): 60%; Number of zebrafish with cerebral ischemia ([1]; MS-SOD 222 μg/mL): 8; Incidence of cerebral ischemia ([1]; MS-SOD 222 μg/mL): 40%; Improvement effect on cerebral ischemia ([1]; MS-SOD 667 μg/mL): 65%; Number of zebrafish with cerebral ischemia ([1]; MS-SOD 667 μg/mL): 7; Incidence of cerebral ischemia ([1]; MS-SOD 667 μg/mL): 35%; Improvement effect on cerebral ischemia ([1]; MS-SOD 2000 μg/mL): 55%; Number of zebrafish with cerebral ischemia ([1]; MS-SOD 2000 μg/mL): 9; Incidence of cerebral ischemia ([1]; MS-SOD 2000 μg/mL): 45%; Improvement effect on cerebral hemorrhage ([2]; MS-SOD 222 μg/mL): 28%; Number of zebrafish with cerebral hemorrhage ([2]; MS-SOD 222 μg/mL): 18; Incidence of cerebral hemorrhage ([2]; MS-SOD 222 μg/mL): 60%; Improvement effect on cerebral hemorrhage ([2]; MS-SOD 667 μg/mL): 20%; Number of zebrafish with cerebral hemorrhage ([2]; MS-SOD 667 μg/mL): 20; Incidence of cerebral hemorrhage ([2]; MS-SOD 667 μg/mL): 67%; Improvement effect on cerebral hemorrhage ([2]; MS-SOD 2000 μg/mL): 32%; Number of zebrafish with cerebral hemorrhage ([2]; MS-SOD 2000 μg/mL): 17; Incidence of cerebral hemorrhage ([2]; MS-SOD 2000 μg/mL): 57%; specific activity [3]: 5 U/μg; Movement improvement effect ([4]; MS-SOD 222 μg/mL): −2%; Movement velocity (mean ± SE) ([4]; MS-SOD 222 μg/mL): 78 mm/s and 78 ± 4 mm/s; Movement improvement effect ([4]; MS-SOD 667 μg/mL): 7%; Movement velocity (mean ± SE) ([4]; MS-SOD 667 μg/mL): 88 mm/s and 88 ± 3 mm/s; Movement improvement effect ([4]; MS-SOD 2000 μg/mL): 53%; Movement velocity (mean ± SE) ([4]; MS-SOD 2000 μg/mL): 143 mm/s and 143 ± 24 mm/s
